Positions count from the first letter of the chain named.

The record followed here is publication PMC4713166, “Chicken scFvs with an Artificial Cysteine for Site-Directed Conjugation” (PLoS ONE, 2016).

B1: artificial cysteine-mutant scFv L7, scFv-pIII fusion protein displayed on phage (scFv, V domains shown)
VH: AVTLDESGGGLQTPGGALSLVCKASGFTFSSYDMGWVRQAPGKGLEWVAGIDDDGSYPNYGPAVKGRATISRDNGQSTVRLQLNNLRAEDTGTYFCAKGIESDSDGYMTAEEIDAWGHGTEVIVSS
VL: ALTQCSSVSANLGGTVKITCSGGYSYYGWYQQKSPGSAPVTVIYESTKRPSNIPSRFSGSTSGSTGTLTITGVQADDAAVYYCGSWDSSSVGIFGAGTTLTVL
notes: VH as in m2; Order VL-linker-VH worked out as for m2
B2: artificial cysteine-mutant scFv H16, scFv-pIII fusion protein displayed on phage (scFv, V domains shown)
VH: B1 VH with G16C
VL: B1 VL with C5P
notes: VL as in m2; Order VL-linker-VH worked out as for m2
B3: artificial cysteine-mutant scFv L6, scFv-pIII fusion protein displayed on phage (scFv, V domains shown)
VH: B1 VH
VL: B1 VL with Q4C, C5P
notes: as for B1
B4: artificial cysteine-mutant scFv L5, scFv-pIII fusion protein displayed on phage (scFv, V domains shown)
VH: B1 VH
VL: B1 VL with T3C, C5P
notes: as for B1
B5: artificial cysteine-mutant scFv H13 (QCP), scFv-pIII fusion protein displayed on phage (scFv, V domains shown)
VH: B1 VH with T13C
VL: B1 VL with C5P
notes: as for B2
B6: charge-variant artificial H13 cysteine-mutant scFv RCK, scFv-C kappa fusion protein cotinine conjugate (scFv, V domains shown)
VH: B1 VH with Q12R, T13C, P14K
VL: B1 VL with C5P
notes: VL as in m2; VH as in m6 (GenBank KP764767 with cysteine at Kabat H13), the flanking residues of H13 changed from QCP to RCK; source: HEK293F, transfected, purified (KappaSelect); reduced with TCEP-HCl, treated with dehydroascorbic acid, conjugated with GMBS-coupled cotinine
B7: artificial cysteine-mutant scFv L5, scFv-C kappa fusion protein cotinine conjugate (scFv, V domains shown)
VH: B1 VH
VL: B1 VL with T3C, C5P
notes: VL as in m3: GenBank KP764766 with Kabat residue L5 replaced with cysteine; VH as in m2; that it was a cotinine conjugate of the scFv-C kappa protein is inferred from that detection; also called L5 mutant scFv; source: HEK293F, transfected, purified (KappaSelect); conjugated with GMBS-coupled cotinine
B8: charge-variant artificial H13 cysteine-mutant scFv ECD, scFv-C kappa fusion protein cotinine conjugate (scFv, V domains shown)
VH: B1 VH with Q12E, T13C, P14D
VL: B1 VL with C5P
notes: VL as in m2; VH as in m6 (GenBank KP764767 with cysteine at Kabat H13), the flanking residues of H13 changed from QCP to ECD; source: HEK293F, transfected, purified (KappaSelect); reduced with TCEP-HCl, treated with dehydroascorbic acid, conjugated with GMBS-coupled cotinine
B9: charge-variant artificial H13 cysteine-mutant scFv ECE, scFv-C kappa fusion protein cotinine conjugate (scFv, V domains shown)
VH: B1 VH with Q12E, T13C, P14E
VL: B1 VL with C5P
notes: VL as in m2; VH as in m6 (GenBank KP764767 with cysteine at Kabat H13), the flanking residues of H13 changed from QCP to ECE; source: HEK293F, transfected, purified (KappaSelect); reduced with TCEP-HCl, treated with dehydroascorbic acid, conjugated with GMBS-coupled cotinine
B10: charge-variant artificial H13 cysteine-mutant scFv DCE, scFv-C kappa fusion protein cotinine conjugate (scFv, V domains shown)
VH: B1 VH with Q12D, T13C, P14E
VL: B1 VL with C5P
notes: VL as in m2; VH as in m6 (GenBank KP764767 with cysteine at Kabat H13), the flanking residues of H13 changed from QCP to DCE; also called DEC (as printed once); source: HEK293F, transfected, purified (KappaSelect); reduced with TCEP-HCl, treated with dehydroascorbic acid, conjugated with GMBS-coupled cotinine

The target in the first assay is T1, recombinant human Fc-tagged PSA (Homo sapiens, UniProt P07288).
T1 construct: prostate-specific antigen (PSA), human; also called prostate-specific antigen; recombinant Fc-tagged PSA
T1 sequence (P07288 18-261): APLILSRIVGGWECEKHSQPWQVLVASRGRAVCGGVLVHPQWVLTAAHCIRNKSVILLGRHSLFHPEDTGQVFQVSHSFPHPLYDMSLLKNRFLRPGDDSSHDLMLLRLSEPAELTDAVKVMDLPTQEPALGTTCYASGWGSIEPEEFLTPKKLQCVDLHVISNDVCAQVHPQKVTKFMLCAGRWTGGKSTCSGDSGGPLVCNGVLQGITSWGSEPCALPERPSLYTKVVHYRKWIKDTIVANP
The assay can be described thus: ELISA; phage enzyme immunoassay: recombinant human Fc-tagged PSA coated on the microtiter plate (5 ug/ml in PBS, overnight at 4 C), blocked with 3% BSA in PBS; scFv-displaying phages in culture supernatant; HRP-conjugated anti-M13 antibody, ABTS, optical density at 405 nm. Conditions: one partner purified.
On to B1, for which the binding result is listed as “binds”.

On to B2, for which the binding result is given as “binds”.

For the molecule B3, the binding result is listed as “binds”.

For the molecule B4, the binding result is reported as “binds”.

In the case of B5, the binding result is recorded as “binds”.

The next assay has as its target T1, recombinant human Fc-tagged PSA. The assay can be described thus: ELISA; enzyme immunoassay: recombinant human Fc-tagged PSA coated on the plate (0.1 M NaHCO3 pH 8.6, overnight at 4 C), blocked with 3% BSA in PBS; 250 ng cotinine-conjugated scFv-C kappa fusion protein in 50 ul, 1 h at 37 C; HRP-conjugated anti-cotinine IgG1 or HRP-conjugated anti-human C kappa antibody, TMB, optical density at 450 nm. Conditions: both partners purified. (In an ELISA, binding on a coated surface is turned into a signal by an enzyme label.)
B6: the binding result is on record as “binds”.

With B7, the binding result is given as “binds”.

Take B8: the binding result is “binds”.

Consider B9, for which the binding result is given as “binds”.

Regarding B10, the binding result was “binds”.
